We go through 1 substance from publication PMC7857584.

One experiment addresses MLA10-cLUC (barley) (UniProt Q6WWJ4).

Substance AVRA10-nLUC (natural protein) came in with an LUC activity (proxy for cell viability) in barley protoplasts co-expressing Mla10 and AVRa10, against Mla10 with AVRa22 (% lower LUC activity) with MLA10-cLUC (barley) of 50. The reduction of relative LUC activity (proxy for cell death) in barley protoplasts co-expressing AVRa10 and Mla22Lrr10, against the empty vector (% reduction of relative LUC activity) with MLA22LRR10-cLUC (barley) was determined as 40.
